Assay results reported in paper PMC13544220, “Glycemic and bodyweight effects of GIPR coding variation reflect differences in surface expression and intrinsic functional impairment” (Science Advances, 2026).
Where a chain is given by its changes, count along the chain named.

B1: p.Arg131Ser (protein, UniProt P48546 22-466, looked up, variant R131S)
Gastric inhibitory …: RAETGSKGQTAGELYQRWERYRRECQETLAAAEPPSGLACNGSFDMYVCWDYAAPNATARASCPWYLPWHHHVAAGFVLRQCGSDGQWGLWRDHTQCENPEKNEAFLDQSLILERLQVMYTVGYSLSLATLLLALLILSLFRRLHCTRNYIHINLFTSFMLRAAAILSRDRLLPRPGPYLGDQALALWNQALAACRTAQIVTQYCVGANYTWLLVEGVYLHSLLVLVGGSEEGHFRYYLLLGWGAPALFVIPWVIVRYLYENTQCWERNEVKAIWWIIRTPILMTILINFLIFIRILGILLSKLRTRQMRCRDYRLRLARSTLTLVPLLGVHEVVFAPVTEEQARGALRFAKLGFEIFLSSFQGFLVSVLYCFINKEVQSEIRRGWHHCRLRRSLGEEQRQLPERAFRALPSGSGPGEVPTSRGLSSGTLPGPGNEASRELESYC
B2: p.Arg136Trp (protein, UniProt P48546 22-466, looked up, variant R136W)
Gastric inhibitory …: B1 Gastric inhibitory … with S110R, R115W
B3: p.Arg183Gln (protein, UniProt P48546 22-466, looked up, variant R183Q)
Gastric inhibitory …: B1 Gastric inhibitory … with S110R, R162Q
B4: p.Arg190Gln (protein, UniProt P48546 22-466, looked up, variant R190Q)
Gastric inhibitory …: B1 Gastric inhibitory … with S110R, R169Q
B5: p.Ala207Val (protein, UniProt P48546 22-466, looked up, variant A207V)
Gastric inhibitory …: B1 Gastric inhibitory … with S110R, A186V
B6: p.Arg217Leu (protein, UniProt P48546 22-466, looked up, variant R217L)
Gastric inhibitory …: B1 Gastric inhibitory … with S110R, R196L
B7: p.Glu252Asp (protein, UniProt P48546 22-466, looked up, variant E252D)
Gastric inhibitory …: B1 Gastric inhibitory … with S110R, E231D
B8: p.Leu262Val (protein, UniProt P48546 22-466, looked up, variant L262V)
Gastric inhibitory …: B1 Gastric inhibitory … with S110R, L241V
B9: p.Leu262His (protein, UniProt P48546 22-466, looked up, variant L262H)
Gastric inhibitory …: B1 Gastric inhibitory … with S110R, L241H
B10: p.Ala268Val (protein, UniProt P48546 22-466, looked up, variant A268V)
Gastric inhibitory …: B1 Gastric inhibitory … with S110R, A247V
B11: p.Glu288Gly (protein, UniProt P48546 22-466, looked up, variant E288G)
Gastric inhibitory …: B1 Gastric inhibitory … with S110R, E267G
B12: p.Arg300Trp (protein, UniProt P48546 22-466, looked up, variant R300W)
Gastric inhibitory …: B1 Gastric inhibitory … with S110R, R279W
B13: p.Arg336Pro (protein, UniProt P48546 22-466, looked up, variant R336P)
Gastric inhibitory …: B1 Gastric inhibitory … with S110R, R315P
B14: p.Arg341Pro (protein, UniProt P48546 22-466, looked up, variant R341P)
Gastric inhibitory …: B1 Gastric inhibitory … with S110R, R320P
B15: p.Glu354Gln (protein, UniProt P48546 22-466, looked up, variant E354Q)
Gastric inhibitory …: B1 Gastric inhibitory … with S110R, E333Q
B16: p.Ile378Met (protein, UniProt P48546 22-466, looked up, variant I378M)
Gastric inhibitory …: B1 Gastric inhibitory … with S110R, I357M
B17: p.Ile403Val (protein, UniProt P48546 22-466, looked up, variant I403V)
Gastric inhibitory …: B1 Gastric inhibitory … with S110R, I382V
B18: p.Arg404His (protein, UniProt P48546 22-466, looked up, variant R404H)
Gastric inhibitory …: B1 Gastric inhibitory … with S110R, R383H
B19: p.Ser415Ile (protein, UniProt P48546 22-466, looked up, variant S415I)
Gastric inhibitory …: B1 Gastric inhibitory … with S110R, S394I
B20: p.Gly438Ser (protein, UniProt P48546 22-466, looked up, variant G438S)
Gastric inhibitory …: B1 Gastric inhibitory … with S110R, G417S
B21: p.Ser447Thr (protein, UniProt P48546 22-466, looked up, variant S447T)
Gastric inhibitory …: B1 Gastric inhibitory … with S110R, S426T
B22: p.Glu463Gln (protein, UniProt P48546 22-466, looked up, variant E463Q)
Gastric inhibitory …: B1 Gastric inhibitory … with S110R, E442Q
B23: p.Ser64Ala (protein, UniProt P48546 22-466, looked up, variant S64A)
Gastric inhibitory …: B1 Gastric inhibitory … with S43A, S110R
B24: p.Asp66Gly (protein, UniProt P48546 22-466, looked up, variant D66G)
Gastric inhibitory …: B1 Gastric inhibitory … with D45G, S110R
B25: p.Leu100Phe (protein, UniProt P48546 22-466, looked up, variant L100F)
Gastric inhibitory …: B1 Gastric inhibitory … with L79F, S110R
B26: p.Arg101His (protein, UniProt P48546 22-466, looked up, variant R101H)
Gastric inhibitory …: B1 Gastric inhibitory … with R80H, S110R
B27: p.Thr116Arg (protein, UniProt P48546 22-466, looked up, variant T116R)
Gastric inhibitory …: B1 Gastric inhibitory … with T95R, S110R

Each molecule was assayed on wild-type and variant SNAP-GIPR (assay: Single-concentration GIP cAMP response by HTRF in AD293 cells). Details: cAMP responses to 100 pM GIP in AD293 cells; summary classification (decrease/neutral/increase).
Format: cell-based, human
Procedure: All variants were tested in parallel on each occasion to control for transfection efficiency differences between experiments.
B1 was tested, and the cAMP response was “decrease”. B2 was tested, and the cAMP response was “decrease”. B3 was tested, and the cAMP response was “decrease”. B4 was tested, and the cAMP response was “decrease”. With B5 the cAMP response was “neutral”. In the case of B6, the cAMP response is reported as “decrease”. For B7, the cAMP response was “increase”. With B8 the cAMP response was “neutral”. B9 was tested, and the cAMP response was “decrease”. B10 was tested, and the cAMP response was “increase”. In the case of B11, the cAMP response is reported as “decrease”. B12 was tested, and the cAMP response was “decrease”. For B13, the cAMP response was “neutral”. With B14 the cAMP response was “decrease”. B15 was tested, and the cAMP response was “increase”. In the case of B16, the cAMP response is reported as “neutral”. In the case of B17, the cAMP response is reported as “neutral”. In the case of B18, the cAMP response is reported as “decrease”. With B19 the cAMP response was “neutral”. In the case of B20, the cAMP response is reported as “neutral”. B21 was tested, and the cAMP response was “neutral”. For B22, the cAMP response was “neutral”. B23 was tested, and the cAMP response was “decrease”. With B24 the cAMP response was “decrease”. In the case of B25, the cAMP response is reported as “neutral”. With B26 the cAMP response was “decrease”. In the case of B27, the cAMP response is reported as “decrease”.

Each molecule was assayed on wild-type and variant SNAP-GIPR (assay: Surface SNAP-GIPR expression (SNAP-tag labelling) in AD293 cells). Details: level of surface expression, based on in vitro functional data in AD293 cells; summary classification.
Format: cell-based, human
Procedure: Twenty-four hours before the experiment, AD293 or INS-1 cells were reverse transfected with GIPR variant or wild-type plasmids using Lipofectamine 2000 in 96-well, clear-bottom, black microplates precoated with poly-D-lysine. All variants were tested in parallel on each occasion to control for transfection efficiency differences between experiments. Cells were then labeled using the cell-impermeant probe SNAP-Surface Alexa Fluor 647 (500 nM, New England Biolabs, USA) for 10 min at room temperature to label only surface GIPR. […] Several fields of view (FOVs) were acquired within each well using a 20X, 0.75–numerical aperture (NA) air objective. Surface GIPR fluorescence was quantified after flat-field correction using BaSiC ([72]) and segmenting using Phantast ([73]), which generates a mask based on the phase contrast images to demarcate cell versus noncell. Wide-field imaging of the surface-specific labeling achieved by SNAP-Surface probes means that surface expression can be established from whole-cell fluorescence, after subtracting nonspecific fluorescence from a separate well containing nontransfected cells processed in parallel from the same experiment. Data were normalized by dividing by the average specific signal across each experiment, or by the wild-type value, as indicated in the figure legends.
In the case of B1, the “Surface expression” value is reported as “neutral”. For B2, the “Surface expression” value was “neutral”. B3 was tested, and the “Surface expression” value was “decrease”. In the case of B4, the “Surface expression” value is reported as “decrease”. With B5 the “Surface expression” value was “neutral”. B6 was tested, and the “Surface expression” value was “decrease”. B7 was tested, and the “Surface expression” value was “neutral”. With B8 the “Surface expression” value was “neutral”. With B9 the “Surface expression” value was “decrease”. B10 was tested, and the “Surface expression” value was “neutral”. With B11 the “Surface expression” value was “decrease”. For B12, the “Surface expression” value was “decrease”. For B13, the “Surface expression” value was “neutral”. B14 was tested, and the “Surface expression” value was “decrease”. With B15 the “Surface expression” value was “decrease”. In the case of B16, the “Surface expression” value is reported as “increase”. B17 was tested, and the “Surface expression” value was “neutral”. In the case of B18, the “Surface expression” value is reported as “decrease”. For B19, the “Surface expression” value was “neutral”. For B20, the “Surface expression” value was “neutral”. For B21, the “Surface expression” value was “neutral”. With B22 the “Surface expression” value was “neutral”. For B23, the “Surface expression” value was “decrease”. With B24 the “Surface expression” value was “decrease”. With B25 the “Surface expression” value was “neutral”. B26 was tested, and the “Surface expression” value was “decrease”. With B27 the “Surface expression” value was “neutral”.
